Key:
HeLa Kyoto [1] = test: solubility change mitosis vs G1/S (difference of NP-40 vs SDS log2 ratios) (log2 ratio difference); higher = more soluble in mitosis
HeLa Kyoto [2] = test: solubility in G1/S (NP-40 vs SDS abundance) (log2 ratio); higher = more soluble; settings: cell cycle stage: G1/S
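Throughout, for solubility change mitosis vs G1/S (difference of NP-40 vs SDS log2 ratios): synchronized HeLa Kyoto cells (double thymidine block for G1/S, nocodazole release for mitosis), protein amounts in NP-40 versus SDS lysates quantified by mass spectrometry, three biological replicates.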
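Throughout, for solubility in G1/S (NP-40 vs SDS abundance): HeLa Kyoto cells arrested at G1/S by double thymidine block, proteins quantified by TMT10plex mass spectrometry in mild NP-40 versus SDS extracts, three biological replicates.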

Sequence | solubility change mitosis (log2) (HeLa Kyoto [1]) | solubility in G1/S (log2) (HeLa Kyoto [2])
MFSAGAESLLHQAREIQDEELKKFCSRICKLLQAEDLGPDTLDSLQRLFLIISATKYSRRLEKTCVDLLQATLGLPACPEQLQVLCAAILREMSPSDSLSLAWDHTQNSRQLSLVASVLLAQGDRNEEVRAVGQGVLRALESRQPEGPSLRHLLPVMAKVVVLSPGTLQEDQATLLSKRLVDWLRYASLQQGLPHSGGFFSTPRARQPGPVTEVDGAVATDFFTVLSSGHRFTDDQWLNVQAFSMLRAWLLHSGPEGPGTLDTDDRSEQEGSTLSVISATSSAGRLLPPRERLREVAFEYCQRLIEQSNRRALRKGDSDLQKACLVEAVLVLDVLCRQDPSFLYRSLSCLKALHGRVRGDPASVRVLLPLAHFFLSHGEAAAVDSEAVYQHLFTRIPVEQFHSPMLAFEFIQFCRDNLHLFSGHLSTLRLSFPNLFKFLAWNSPPLTSEFVALLPALVDAGTALEMLHALLDLPCLTAVLDLQLRSAPAASERPLWDTSLRAPSCLEAFRDPQFQGLFQYLLRPKASGATERLAPLHQLLQPMAGCARVAQCAQAVPTLLQAFFSAVTQVADGSLINQLALLLLGRSDSLYPAPGYAAGVHSVLSSQFLALCTLKPSLVVELARDLLEFLGSVNGLCSRASLVTSVVWAIGEYLSVTYDRRCTVEQINKFFEALEALLFEVTQCRPSAALPRCPPQVVTVLMTTLTKLASRSQDLIPRASLLLSKMRTLAHSPATSSTHSEEGAEAIRTRATELLTLLKMPSVAQFVLTPSTEVCSPRYHRDANTALPLALRTVSRLVEREAGLMPG [AP5Z1] | -0.0926 | 0.134
MAEPGEGLPEEVLALIFRHLSLRDRAAAARVCRAWAAAATCSAVWHDTKISCECELEGMLPPYLSACLDHIHNLRLEFEPSRKPSRRAAIELLMVLAGRAPGLRGLRLECRGEKPLFDAGRDVLEAVHAVCGAASQLRHLDLRRLSFTLDDALVLQAARSCPELHSLFLDNSTLVGSVGPGSVLELLEACPRLRALGLHLASLSHAILEALAAPDRAPFALLALRCACPEDARASPLPNEAWVALRRRHPGLAVELELEPALPAESVTRVLQPAVPVAALRLNLSGDTVGPVRFAAHHYAATLCALEVRAAASAELNAALEELAARCAALREVHCFCVVSHSVLDAFRAHCPRLRTYTLKLTREPHPWRPTLVA [FBXL8] | -0.0843 | -0.196
MSMTLGYWDIRGLAHAIRLLLEYTDSSYEEKKYTMGDAPDYDRSQWLNEKFKLGLDFPNLPYLIDGAHKITQSNAILCYIARKHNLCGETEEEKIRVDILENQAMDVSNQLARVCYSPDFEKLKPEYLEELPTMMQHFSQFLGKRPWFVGDKITFVDFLAYDVLDLHRIFEPNCLDAFPNLKDFISRFEGLEKISAYMKSSRFLPKPLYTRVAVWGNK [GSTM4] | -0.101 | -0.0869
MAEDEPDAKSPKTGGRAPPGGAEAGEPTTLLQRLRGTISKAVQNKVEGILQDVQKFSDNDKLYLYLQLPSGPTTGDKSSEPSTLSNEEYMYAYRWIRNHLEEHTDTCLPKQSVYDAYRKYCESLACCRPLSTANFGKIIREIFPDIKARRLGGRGQSKYCYSGIRRKTLVSMPPLPGLDLKGSESPEMGPEVTPAPRDELVEAACALTCDWAERILKRSFSSIVEVARFLLQQHLISARSAHAHVLKAMGLAEEDEHAPRERSSKPKNGLENPEGGAHKKPERLAQPPKDLEARTGAGPLARGERKKSVVESSAPGANNLQVNALVARLPLLLPRAPRSLIPPIPVSPPILAPRLSSGALKVATLPLSSRAGAPPAAVPIINMILPTVPALPGPGPGPGRAPPGGLTQPRGTENREVGIGGDQGPHDKGVKRTAEVPVSEASGQAPPAKAAKQDIEDTASDAKRKRGRPRKKSGGSGERNSTPLKSAAAMESAQSSRLPWETWGSGGEGNSAGGAERPGPMGEAEKGAVLAQGQGDGTVSKGGRGPGSQHTKEAEDKIPLVPSKVSVIKGSRSQKEAFPLAKGEVDTAPQGNKDLKEHVLQSSLSQEHKDPKATPP [RFX5] | -0.117 | 0.487
MPLGLKPTCSVCKTTSSSMWKKGAQGEILCHHCTGRGGAGSGGAGSGAAGGTGGSGGGGFGAATFASTSATPPQSNGGGGGKQSKQEIHRRSARLRNTKYKSAPAAEKKVSTKGKGRRHIFKLKNPIKAPESVSTIITAESIFYKGVYYQIGDVVSVIDEQDGKPYYAQIRGFIQDQYCEKSAALTWLIPTLSSPRDQFDPASYIIGPEEDLPRKMEYLEFVCHAPSEYFKSRSSPFPTVPTRPEKGYIWTHVGPTPAITIKESVANHL [GATAD1] | 0.25 | -0.0455
MGKSCKVVVCGQASVGKTSILEQLLYGNHVVGSEMIETQEDIYVGSIETDRGVREQVRFYDTRGLRDGAELPRHCFSCTDGYVLVYSTDSRESFQRVELLKKEIDKSKDKKEVTIVVLGNKCDLQEQRRVDPDVAQHWAKSEKVKLWEVSVADRRSLLEPFVYLASKMTQPQSKSAFPLSRKNKGSGSLDG [NKIRAS2] | -0.0114 | -0.133
MPSRAEDYEVLYTIGTGSYGRCQKIRRKSDGKILVWKELDYGSMTEAEKQMLVSEVNLLRELKHPNIVRYYDRIIDRTNTTLYIVMEYCEGGDLASVITKGTKERQYLDEEFVLRVMTQLTLALKECHRRSDGGHTVLHRDLKPANVFLDGKQNVKLGDFGLARILNHDTSFAKTFVGTPYYMSPEQMNRMSYNEKSDIWSLGCLLYELCALMPPFTAFSQKELAGKIREGKFRRIPYRYSDELNEIITRMLNLKDYHRPSVEEILENPLIADLVADEQRRNLERRGRQLGEPEKSQDSSPVLSELKLKEIQLQERERALKAREERLEQKEQELCVRERLAEDKLARAENLLKNYSLLKERKFLSLASNPELLNLPSSVIKKKVHFSGESKENIMRSENSESQLTSKSKCKDLKKRLHAAQLRAQALSDIEKNYQLKSRQILGMR [NEK2] | 0.191 | -0.123
MAGPAPPVADELPGPAARRLYSRMEASCLELALEGERLCKAGDFKTGVAFFEAAVQVGTEDLKTLSAIYSQLGNAYFYLKEHGRALEYHKHDLLLARTIGDRMGEAKASGNLGNTLKVLGRFDEAAVCCQRHLSIAQEQGDKVGEARALYNIGNVYHAKGKQLSWNAANATQDPGHLPPDVRETLCKASEFYERNLSLVKELGDRAAQGRAYGNLGNTHYLLGNFTEATTFHKERLAIAKEFGDKAAERRAYSNLGNAHVFLGRFDVAAEYYKKTLQLSRQLRDQAVEAQACYSLGNTYTLLQDYERAAEYHLRHLLIAQELADRVGEGRACWSLGNAYVSMGRPAQALTFAKKHLQISQEIGDRHGELTARMNVAQLQLVLGRLTSPAASEKPDLAGYEAQGARPKRTQRLSAETWDLLRLPLEREQNGDSHHSGDWRGPSRDSLPLPVRSRKYQEGPDAERRPREGSHSPLDSADVRVHVPRTSIPRAPSSDEECFFDLLTKFQSSRMDDQRCPLDDGQAGAAEATAAPTLEDRIAQPSMTASPQTEEFFDLIASSQSRRLDDQRASVGSLPGLRITHSNAGHLRGHGEPQEPGDDFFNMLIKYQSSRIDDQRCPPPDVLPRGPTMPDEDFFSLIQRVQAKRMDEQRVDLAGGPEQGAGGPPEPQQQCQPGAS [GPSM1] | -0.0781 | 0.244
MFSALKKLVGSDQAPGRDKNIPAGLQSMNQALQRRFAKGVQYNMKIVIRGDRNTGKTALWHRLQGRPFVEEYIPTQEIQVTSIHWSYKTTDDIVKVEVWDVVDKGKCKKRGDGLKMENDPQEAESEMALDAEFLDVYKNCNGVVMMFDITKQWTFNYILRELPKVPTHVPVCVLGNYRDMGEHRVILPDDVRDFIDNLDRPPGSSYFRYAESSMKNSFGLKYLHKFFNIPFLQLQRETLLRQLETNQLDMDATLEELSVQQETEDQNYGIFLEMMEARSRGHASPLAANGQSPSPGSQSPVVPAGAVSTGSSSPGTPQPAPQLPLNAAPPSSVPPVPPSEALPPPACPSAPAPRRSIISRLFGTSPATEAAPPPPEPVPAAEGPATVQSVEDFVPDDRLDRSFLEDTTPARDEKKVGAKAAQQDSDSDGEALGGNPMVAGFQDDVDLEDQPRGSPPLPAGPVPSQDITLSSEEEAEVAAPTKGPAPAPQQCSEPETKWSSIPASKPRRGTAPTRTAAPPWPGGVSVRTGPEKRSSTRPPAEMEPGKGEQASSSESDPEGPIAAQMLSFVMDDPDFESEGSDTQRRADDFPVRDDPSDVTDEDEGPAEPPPPPKLPLPAFRLKNDSDLFGLGLEEAGPKESSEEGKEGKTPSKEKKKKKKKGKEEEEKAAKKKSKHKKSKDKEEGKEERRRRQQRPPRSRERTAADELEAFLGGGAPGGRHPGGGDYEEL [RABL6] | -0.0863 | 0.183
MADFEELRNMVSSFRVSELQVLLGFAGRNKSGRKHDLLMRALHLLKSGCSPAVQIKIRELYRRRYPRTLEGLSDLSTIKSSVFSLDGGSSPVEPDLAVAGIHSLPSTSVTPHSPSSPVGSVLLQDTKPTFEMQQPSPPIPPVHPDVQLKNLPFYDVLDVLIKPTSLVQSSIQRFQEKFFIFALTPQQVREICISRDFLPGGRRDYTVQVQLRLCLAETSCPQEDNYPNSLCIKVNGKLFPLPGYAPPPKNGIEQKRPGRPLNITSLVRLSSAVPNQISISWASEIGKNYSMSVYLVRQLTSAMLLQRLKMKGIRNPDHSRALIKEKLTADPDSEIATTSLRVSLMCPLGKMRLTIPCRAVTCTHLQCFDAALYLQMNEKKPTWICPVCDKKAAYESLILDGLFMEILNDCSDVDEIKFQEDGSWCPMRPKKEAMKVSSQPCTKIESSSVLSKPCSVTVASEASKKKVDVIDLTIESSSDEEEDPPAKRKCIFMSETQSSPTKGVLMYQPSSVRVPSVTSVDPAAIPPSLTDYSVPFHHTPISSMSSDLPGLDFLSLIPVDPQYCPPMFLDSLTSPLTASSTSVTTTSSHESSTHVSSSSSRSETGVITSSGSNIPDIISLD [PIAS2] | -0.0526 | 0.155
MEDGTPKHIIQMTGFKMEEKEALVKLLLKLDCTFIKSEKYKNCTHLIAERLCKSEKFLAACAAGKWILTKDYIIHSAKSGRWLDETTYEWGYKIEKDSRYSPQMQSAPKRWREELKRTGAPGAFHRWKVVLLVRTDKRSDSLIRVLEAGKANVILPKSSPSGITHVIASNARIKAEKEKDNFKAPFYPIQYLGDFLLEKEIQNDEDSQTNSVWTEHSNEETNKDFRKDAGFLEMKGALRETMYRTQKEMQNHEDVNVGSILIQHHKKEKFSGSSKDLKFVKMRNTFGSHTYENQKEIKKKDEDIQRSYTLRRKRKKGKESNCKKGVEHEKIKSTLRRHIYNRDQKEMKNSIFAEYAKESKAMAIKTDVDVVEIKNTLRKHIYRAQAVRYNCIRIDKQPVYNVEVKNAEFPRGVLNLIESLIEGHFFKEAIEELSTLQAHYIPPVCVLHALLENVLQDNIDTFSGRYFHILSALLHLHPPWKSPAMSRYYLELFQCPTCMKGAWSLVEVLIRSCLFNESFCHQISENIGSKVLHLTLLKFFFNLIESEVQHLSQKLYDWSDSQNLKITGKAMLLEIFWSGSETSGLLTKPVNMLLEWTIYSHKEKFKSNDVFKHELAYLLAGILGAAIDYWIFLGLKMGRNVMRHMSDDLGSYVSLSCDDFSSQELEIFICSFSSSWLQMFVAEAVFKKLCLQSSGSVSSEPLSLQKMVYSYLPALGKTGVLGSGKIQVSKKIGQRPCFDSQRTLLMLNGTKQKQVEGLPELLDLNLAKCSSSLKKLKKKSEGELSCSKENCPSVVKKMNFHKTNLKGETALHRACINNQVEKLILLLSLPGIDINVKDNAGWTPLHEACNYGNTVCVQEILQRCPEVDLLTQVDGVTPLHDALSNGHVEIGKLLLQHGGPVLLQQRNAKGELPLDYVVSPQIKEELFAITKIEDTVENFHAQAEKHFHYQQLEFGSFLLSRMLLNFCSIFDLSSEFILASKGLTHLNELLMACKSHKETTSVHTDWLLDLYAGNIKTLQKLPHILKELPENLKVCPGVHTEALMITLEMMCRSVMEFS [SLF1] | 0.644 | -0.991

From the supplement of paper PMC5998384
